Legend:
Assay in all cases: SPR
eN49P7-FRv1-23 IgG1 = biological target: eN49P7-FRv1-23 IgG1
N49P7-FR IgG1 = biological target: N49P7-FR IgG1
N49P7 IgG1 = biological target: N49P7 IgG1
N49P7 IgG1, sequence (heavy, as listed by the source, chain 1 of 2): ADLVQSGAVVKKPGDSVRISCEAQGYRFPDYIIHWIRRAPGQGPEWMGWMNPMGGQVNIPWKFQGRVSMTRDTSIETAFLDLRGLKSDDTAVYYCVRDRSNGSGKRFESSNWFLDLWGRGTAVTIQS
N49P7 IgG1, sequence (light, as listed by the source, chain 2 of 2): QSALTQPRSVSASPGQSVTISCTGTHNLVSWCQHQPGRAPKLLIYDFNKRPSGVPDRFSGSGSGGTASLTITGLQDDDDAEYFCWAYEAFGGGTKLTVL

N49P7-FR IgG1, sequence (VH, as listed by the source, chain 1 of 2): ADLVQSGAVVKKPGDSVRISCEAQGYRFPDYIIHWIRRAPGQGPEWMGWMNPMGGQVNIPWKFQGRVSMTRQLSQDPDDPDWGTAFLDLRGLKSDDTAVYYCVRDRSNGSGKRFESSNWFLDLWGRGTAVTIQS
N49P7-FR IgG1, sequence (VL, as listed by the source, chain 2 of 2): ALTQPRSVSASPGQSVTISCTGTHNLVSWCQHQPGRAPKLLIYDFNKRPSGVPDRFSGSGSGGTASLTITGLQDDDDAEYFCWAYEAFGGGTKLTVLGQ
eN49P7-FRv1-23 IgG1, sequence (VH, as listed by the source, chain 1 of 2): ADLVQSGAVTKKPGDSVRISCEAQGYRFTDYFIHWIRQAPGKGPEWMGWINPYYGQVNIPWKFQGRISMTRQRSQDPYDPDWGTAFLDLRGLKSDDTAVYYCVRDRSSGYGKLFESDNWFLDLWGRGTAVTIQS
eN49P7-FRv1-23 IgG1, sequence (VL, as listed by the source, chain 2 of 2): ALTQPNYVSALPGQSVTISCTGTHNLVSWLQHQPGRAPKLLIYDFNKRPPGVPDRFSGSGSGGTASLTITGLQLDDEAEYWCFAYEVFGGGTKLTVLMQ

For “HIV gp120 93TH057 (clade AE) (natural protein)”, the Kd (eN49P7-FRv1-23 IgG1) was 29 nM, the koff (eN49P7-FRv1-23 IgG1) was 0.0015 s⁻¹ and the kon (eN49P7-FRv1-23 IgG1) was 51000 M⁻¹ s⁻¹. It also gave a Kd (N49P7-FR IgG1) of 19 nM, a koff (N49P7-FR IgG1) of 0.0022 s⁻¹ and a kon (N49P7-FR IgG1) of 120000 M⁻¹ s⁻¹.

Substance “HIV gp120 6041.v3 (clade AC) (natural protein)” has a Kd (eN49P7-FRv1-23 IgG1) of 24 nM, a koff (eN49P7-FRv1-23 IgG1) of 0.001 s⁻¹ and a kon (eN49P7-FRv1-23 IgG1) of 44000 M⁻¹ s⁻¹. It also gave a Kd (N49P7 IgG1) of 100 nM, a koff (N49P7 IgG1) of 0.0032 s⁻¹ and a kon (N49P7 IgG1) of 31000 M⁻¹ s⁻¹. The Kd (N49P7-FR IgG1) was 190 nM, the koff (N49P7-FR IgG1) was 0.0026 s⁻¹ and the kon (N49P7-FR IgG1) was 14000 M⁻¹ s⁻¹.

For “HIV gp120 BJOX2000 (clade BC) (natural protein)”, the Kd (eN49P7-FRv1-23 IgG1) was 50 nM, the koff (eN49P7-FRv1-23 IgG1) was 0.00092 s⁻¹ and the kon (eN49P7-FRv1-23 IgG1) was 18000 M⁻¹ s⁻¹. For the same substance, the Kd (N49P7 IgG1) was over 1000 nM, the koff (N49P7 IgG1) was 0.0024 s⁻¹ and the kon (N49P7 IgG1) was 680 M⁻¹ s⁻¹. It also gave a Kd (N49P7-FR IgG1) of over 1000 nM, a koff (N49P7-FR IgG1) of 0.0025 s⁻¹ and a kon (N49P7-FR IgG1) of 280 M⁻¹ s⁻¹.

“HIV gp120 CAP45 (clade C) (natural protein)” gave a Kd (eN49P7-FRv1-23 IgG1) of 31 nM, a koff (eN49P7-FRv1-23 IgG1) of 0.0031 s⁻¹ and a kon (eN49P7-FRv1-23 IgG1) of 100000 M⁻¹ s⁻¹. The Kd (N49P7-FR IgG1) was 140 nM, the koff (N49P7-FR IgG1) was 0.0017 s⁻¹ and the kon (N49P7-FR IgG1) was 12000 M⁻¹ s⁻¹.

Substance “HIV gp120 CH119 (clade BC) (natural protein)” has a Kd (eN49P7-FRv1-23 IgG1) of 20 nM, a koff (eN49P7-FRv1-23 IgG1) of 0.00053 s⁻¹ and a kon (eN49P7-FRv1-23 IgG1) of 27000 M⁻¹ s⁻¹. The Kd (N49P7-FR IgG1) was 110 nM, the koff (N49P7-FR IgG1) was 0.0008 s⁻¹ and the kon (N49P7-FR IgG1) was 7400 M⁻¹ s⁻¹.

“HIV gp120 CNE8 (clade AE) (natural protein)” gave a Kd (eN49P7-FRv1-23 IgG1) of 47 nM, a koff (eN49P7-FRv1-23 IgG1) of 0.0011 s⁻¹ and a kon (eN49P7-FRv1-23 IgG1) of 24000 M⁻¹ s⁻¹. The Kd (N49P7 IgG1) was 73 nM, the koff (N49P7 IgG1) was 0.00079 s⁻¹ and the kon (N49P7 IgG1) was 11000 M⁻¹ s⁻¹. For the same substance, the Kd (N49P7-FR IgG1) was 15 nM, the koff (N49P7-FR IgG1) was 0.0013 s⁻¹ and the kon (N49P7-FR IgG1) was 88000 M⁻¹ s⁻¹.

Substance “HIV gp120 Ce1176 (clade C) (natural protein)” has a Kd (eN49P7-FRv1-23 IgG1) of 17 nM, a koff (eN49P7-FRv1-23 IgG1) of 0.00069 s⁻¹ and a kon (eN49P7-FRv1-23 IgG1) of 42000 M⁻¹ s⁻¹. It also gave a Kd (N49P7-FR IgG1) of 63 nM, a koff (N49P7-FR IgG1) of 0.00059 s⁻¹ and a kon (N49P7-FR IgG1) of 9400 M⁻¹ s⁻¹.

“HIV gp120 IAVI-C22 (clade C) (natural protein)” was tested, and the Kd (eN49P7-FRv1-23 IgG1) was 65 nM, the koff (eN49P7-FRv1-23 IgG1) was 0.00092 s⁻¹ and the kon (eN49P7-FRv1-23 IgG1) was 14000 M⁻¹ s⁻¹. For the same substance, the Kd (N49P7 IgG1) was 230 nM, the koff (N49P7 IgG1) was 0.0011 s⁻¹ and the kon (N49P7 IgG1) was 4900 M⁻¹ s⁻¹. The Kd (N49P7-FR IgG1) was over 1000 nM, the koff (N49P7-FR IgG1) was 0.0014 s⁻¹ and the kon (N49P7-FR IgG1) was 200 M⁻¹ s⁻¹.

“HIV gp120 TRO.11 (clade B) (natural protein)” showed a Kd (eN49P7-FRv1-23 IgG1) of 44 nM, a koff (eN49P7-FRv1-23 IgG1) of 0.00074 s⁻¹ and a kon (eN49P7-FRv1-23 IgG1) of 17000 M⁻¹ s⁻¹. The Kd (N49P7-FR IgG1) was 120 nM, the koff (N49P7-FR IgG1) was 0.0012 s⁻¹ and the kon (N49P7-FR IgG1) was 9900 M⁻¹ s⁻¹.

Source: publication doi:10.1101/2025.10.22.684031
